Measurements as given in patent US20140161798A1 (Merck Sharp & Dohme, published 2014).

What was measured:
[1] = biological target: Purified PCSK9 carrying a C-terminal FLAG tag (UniProt Q8NBP7); assay: AlphaScreen PCSK9-FLAG/His-LDLR; log[antibody] ug/ml -0.55953
[2] = biological target: Purified PCSK9 carrying a C-terminal FLAG tag (UniProt Q8NBP7); assay: AlphaScreen PCSK9-FLAG/His-LDLR; log[antibody] ug/ml -1.03665
[3] = biological target: Purified PCSK9 carrying a C-terminal FLAG tag (UniProt Q8NBP7); assay: AlphaScreen PCSK9-FLAG/His-LDLR; log[antibody] ug/ml -1.9909
[4] = biological target: Purified PCSK9 carrying a C-terminal FLAG tag (UniProt Q8NBP7); assay: AlphaScreen PCSK9-FLAG/His-LDLR; log[antibody] ug/ml 1.348954
[5] = biological target: Purified PCSK9 carrying a C-terminal FLAG tag (UniProt Q8NBP7); assay: AlphaScreen PCSK9-FLAG/His-LDLR; log[antibody] ug/ml -0.55953; remark: listed apart in the source
[6] = biological target: Purified PCSK9 carrying a C-terminal FLAG tag (UniProt Q8NBP7); assay: AlphaScreen PCSK9-FLAG/His-LDLR; log[antibody] ug/ml -1.51377
[7] = biological target: Purified PCSK9 carrying a C-terminal FLAG tag (UniProt Q8NBP7); assay: AlphaScreen PCSK9-FLAG/His-LDLR; log[antibody] ug/ml 0.394711
[8] = biological target: Purified PCSK9 carrying a C-terminal FLAG tag (UniProt Q8NBP7); assay: AlphaScreen PCSK9-FLAG/His-LDLR; log[antibody] ug/ml 1.826075
[9] = biological target: Purified PCSK9 carrying a C-terminal FLAG tag (UniProt Q8NBP7); assay: AlphaScreen PCSK9-FLAG/His-LDLR; log[antibody] ug/ml -1.51377; remark: listed apart in the source
[10] = biological target: Purified PCSK9 carrying a C-terminal FLAG tag (UniProt Q8NBP7); assay: AlphaScreen PCSK9-FLAG/His-LDLR; log[antibody] ug/ml -1.9909; remark: listed apart in the source
[11] = biological target: Purified PCSK9 carrying a C-terminal FLAG tag (UniProt Q8NBP7); assay: AlphaScreen PCSK9-FLAG/His-LDLR; log[antibody] ug/ml 1.348954; remark: listed apart in the source
[12] = biological target: Purified PCSK9 carrying a C-terminal FLAG tag (UniProt Q8NBP7); assay: AlphaScreen PCSK9-FLAG/His-LDLR; log[antibody] ug/ml 0.871832
[13] = biological target: Purified PCSK9 carrying a C-terminal FLAG tag (UniProt Q8NBP7); assay: AlphaScreen PCSK9-FLAG/His-LDLR; log[antibody] ug/ml -2.46802
[14] = biological target: Purified PCSK9 carrying a C-terminal FLAG tag (UniProt Q8NBP7); assay: AlphaScreen PCSK9-FLAG/His-LDLR; log[antibody] ug/ml -2.94514
[15] = biological target: Purified PCSK9 carrying a C-terminal FLAG tag (UniProt Q8NBP7); assay: AlphaScreen PCSK9-FLAG/His-LDLR; log[antibody] ug/ml 0.394711; remark: listed apart in the source
[16] = biological target: Purified PCSK9 carrying a C-terminal FLAG tag (UniProt Q8NBP7); assay: AlphaScreen PCSK9-FLAG/His-LDLR; log[antibody] ug/ml -0.08241
[17] = biological target: Purified PCSK9 carrying a C-terminal FLAG tag (UniProt Q8NBP7); assay: AlphaScreen PCSK9-FLAG/His-LDLR; log[antibody] ug/ml 0.871832; remark: listed apart in the source
[18] = biological target: Purified PCSK9 carrying a C-terminal FLAG tag (UniProt Q8NBP7); assay: AlphaScreen PCSK9-FLAG/His-LDLR; log[antibody] ug/ml -2.46802; remark: listed apart in the source
[19] = biological target: Purified PCSK9 carrying a C-terminal FLAG tag (UniProt Q8NBP7); assay: AlphaScreen PCSK9-FLAG/His-LDLR; log[antibody] ug/ml -1.03665; remark: listed apart in the source
[20] = biological target: Purified PCSK9 carrying a C-terminal FLAG tag (UniProt Q8NBP7); assay: AlphaScreen PCSK9-FLAG/His-LDLR; log[antibody] ug/ml -0.08241; remark: listed apart in the source
bacu-PCSK9-WT = bacu-PCSK9-WT (UniProt Q8NBP7); assay: cell-based or functional assay
Sequence of bacu-PCSK9-WT (Q8NBP7 31-692 limits assumed): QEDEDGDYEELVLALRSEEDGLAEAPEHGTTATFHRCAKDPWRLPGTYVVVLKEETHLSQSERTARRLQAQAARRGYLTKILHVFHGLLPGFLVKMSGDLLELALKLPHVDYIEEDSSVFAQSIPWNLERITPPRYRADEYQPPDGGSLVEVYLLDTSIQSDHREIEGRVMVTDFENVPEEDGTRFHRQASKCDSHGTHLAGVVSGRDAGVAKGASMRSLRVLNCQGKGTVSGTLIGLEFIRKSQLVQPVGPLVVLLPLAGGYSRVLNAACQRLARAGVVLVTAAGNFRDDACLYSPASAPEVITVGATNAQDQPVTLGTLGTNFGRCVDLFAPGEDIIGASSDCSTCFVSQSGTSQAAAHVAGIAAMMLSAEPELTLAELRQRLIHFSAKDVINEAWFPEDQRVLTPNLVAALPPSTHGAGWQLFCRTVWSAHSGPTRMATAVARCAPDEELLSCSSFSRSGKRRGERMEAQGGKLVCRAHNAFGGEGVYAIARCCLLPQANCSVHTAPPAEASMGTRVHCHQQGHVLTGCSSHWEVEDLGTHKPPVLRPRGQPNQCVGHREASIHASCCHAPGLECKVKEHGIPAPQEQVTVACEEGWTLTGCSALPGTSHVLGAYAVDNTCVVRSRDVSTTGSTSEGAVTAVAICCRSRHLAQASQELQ

[21] = biological target: Purified PCSK9 carrying a C-terminal FLAG tag (UniProt Q8NBP7); assay: AlphaScreen PCSK9-FLAG/His-LDLR; log[antibody] ug/ml 1.826075; remark: listed apart in the source
[22] = biological target: T1, Purified PCSK9 carrying a C-terminal FLAG tag (UniProt Q8NBP7 31-692); assay: AlphaScreen, inhibition of PCSK9-Flag/His-tagged LDL receptor interaction; average of two measurements
T1 construct: also called PCSK9-FLAG; PCSK9-Flag; not shown: C-terminal FLAG tag
T1 sequence (Q8NBP7 31-692 limits assumed): as above
Protocol: This technique required that “donor” and “acceptor” beads be brought into proximity via protein—protein interaction, resulting in increased luminescence (Ullman et al., Proc. Nat. Acad. Sci. (1994) 91:5426-5430). […] About 2.5 μl of biotinylated anti-Flag-M2 antibody (1.8 μg/ml) was added and the mixture incubated for 1 hour. Afterward 5 μl of streptavidin donor bead and nickel chelate acceptor bead (1:1 mixture) was added and the assay incubated overnight. AlphaScreen signal (counts per second) was analyzed using an EnVision microplate reader (Perkin-Elmer). All data points were determined in triplicate. Assays were carried out at 23° C. in buffer containing 25 mM HEPES, 0.1 M NaCl, pH 7.4, 0.1% BSA. The inhibition assays were determined similarly with slight adjustments to assay volumes and protein concentrations.

Sequence of Purified PCSK9 carrying a C-terminal FLAG tag (UniProt Q8NBP7) (Q8NBP7 31-692 limits assumed): as above

## Rabbit anti-murine-PCSK9 polyclonal antibody, Cayman Chemical Cat.#10008811 (anti-PCSK9-catalytic domain antibody)
[1]
  AlphaScreen mean counts: 77400 counts
[2]
  AlphaScreen mean counts: 124000 counts
[3]
  AlphaScreen mean counts: 130000 counts
[4]
  AlphaScreen mean counts: 12300 counts
[5]
  AlphaScreen mean counts: 128000 counts
[6]
  AlphaScreen mean counts: 85600 counts
[7]
  AlphaScreen mean counts: 93500 counts
[8]
  AlphaScreen mean counts: 2100 counts
[9]
  AlphaScreen mean counts: 126000 counts
[10]
  AlphaScreen mean counts: 81500 counts
[11]
  AlphaScreen mean counts: 25800 counts
[12]
  AlphaScreen mean counts: 33300 counts
[13]
  AlphaScreen mean counts: 132000 counts
[14]
  AlphaScreen mean counts: 85400 counts
[15]
  AlphaScreen mean counts: 60100 counts
[16]
  AlphaScreen mean counts: 70000 counts
[17]
  AlphaScreen mean counts: 55600 counts
[18]
  AlphaScreen mean counts: 80600 counts
[19]
  AlphaScreen mean counts: 79800 counts
[20]
  AlphaScreen mean counts: 94800 counts
bacu-PCSK9-WT
  DiI-LDL uptake by HepG2 cells, 6 hour incubation, [PCSK9] 1.67 ug/ml, antibody 100 ug/ml (fluorescence intensity): 2.95e+07
  DiI-LDL uptake by HepG2 cells, 6 hour incubation, [PCSK9] 5 ug/ml, antibody 100 ug/ml (fluorescence intensity): 2.56e+07
  DiI-LDL uptake by HepG2 cells, 6 hour incubation, [PCSK9] 15 ug/ml, antibody 100 ug/ml (fluorescence intensity): 2.24e+07
  DiI-LDL uptake by HepG2 cells, 18 hour incubation, [PCSK9] 1.67 ug/ml, antibody 100 ug/ml (fluorescence intensity): 3.2e+07
  DiI-LDL uptake by HepG2 cells, 18 hour incubation, [PCSK9] 5 ug/ml, antibody 100 ug/ml (fluorescence intensity): 2.59e+07
  DiI-LDL uptake by HepG2 cells, 18 hour incubation, [PCSK9] 15 ug/ml, antibody 100 ug/ml (fluorescence intensity): 2.18e+07
[21]
  AlphaScreen mean counts: 6840 counts

B1: 1F11/1G11 anti-PCSK9 antibody (IgG2a) (antibody, V domains shown)
VH: EVQLQQSGPELVKPGASVKISCKVSGYTFTDYYMNWVKQSHGKSLEWIGDINPNNGGAIYNQKFKGKATLTVDKSSSIAYMELRSLTSEDSAVYYCTSGIITEIAEDFWGQGTTLTVSS
VL: DIVMTQSQKFMSTSVGDRVSVTCKASQNVGTNVVWYQQKPGQSPKALIHSASYRYSGVPDRFKGSGSGTDFTLTITNVQSEDLAGFFCQQYKTYPYTFGGGTQLEIKR
notes: also called anti-human PCSK9 Antibody, 1F11/1G11
[22]
  IC50: 0.049 nM
